B1: 5T4 9-mer peptide 77 PLADLSPFA (peptide)
peptide: PLADLSPFA
notes: also called Peptide No 77
B2: 5T4 9-mer peptide 11 LALVLLGWV (peptide)
peptide: LALVLLGWV
notes: also called Peptide No 11
B3: 5T4 9-mer peptide 145 VFLDNNPWV (peptide)
peptide: VFLDNNPWV
B4: 5T4 9-mer peptide 4 RGPAAGDGR (peptide)
peptide: RGPAAGDGR
notes: also called Peptide No 4
B5: 5T4 9-mer peptide 106 GLRRLELAS (peptide)
peptide: GLRRLELAS
B6: 5T4 9-mer peptide 99 GMVVAALLA (peptide)
peptide: GMVVAALLA
notes: also called Peptide No 99
B7: 5T4 9-mer peptide 118 SLRHLDLSN (peptide)
peptide: SLRHLDLSN
B8: 5T4 9-mer peptide 174 ILPPSLQTS (peptide)
peptide: ILPPSLQTS
notes: also called Peptide No 174
B9: 5T4 9-mer peptide 126 (peptide)
peptide: YVSFRNLTH
B10: 5T4 9-mer peptide 163 (peptide)
peptide: YPEKMRNRV
B11: 5T4 9-mer peptide 182 (peptide)
peptide: LALIGAIFL
B12: 5T4 9-mer peptide 187 (peptide)
peptide: VLYLNRKGI
B13: 5T4 9 mer peptide 58 (PPLAELAAL) (peptide)
peptide: PPLAELAAL
B14: 5T4 9 mer peptide 55 (GAFARRPPL) (peptide)
peptide: GAFARRPPL
B15: 5T4 9 mer peptide 8 (RLRLARLAL) (peptide)
peptide: RLRLARLAL
B16: 5T4 9 mer peptide 23 (APFLASAVS) (peptide)
peptide: APFLASAVS
B17: 5T4 9 mer peptide 43 (VPTDLPAYV) (peptide)
peptide: VPTDLPAYV
B18: 5T4 9 mer peptide 161 (LTCAYPEKM) (peptide)
peptide: LTCAYPEKM
B19: 5T4 9 mer peptide 59 (LAELAALNL) (peptide)
peptide: LAELAALNL
B20: 5T4 9 mer peptide 71 (LPSLRQLDL) (peptide)
peptide: LPSLRQLDL
B21: 5T4 9 mer peptide 117 (LPSLRHLDL) (peptide)
peptide: LPSLRHLDL
B22: 5T4 9 mer peptide 125 (LTYVSFRNL) (peptide)
peptide: LTYVSFRNL
B23: 5T4 9 mer peptide 109 (LASNHFLYL) (peptide)
peptide: LASNHFLYL
B24: 5T4 9 mer peptide 101 (AALLAGRAL) (peptide)
peptide: AALLAGRAL
B25: 5T4 9 mer peptide 65 (RLDEVRAGA) (peptide)
peptide: RLDEVRAGA
B26: 5T4 9 mer peptide 45 (LPAYVRNLF) (peptide)
peptide: LPAYVRNLF
B27: 5T4 9 mer peptide 17 (SPTSSASSF) (peptide)
peptide: SPTSSASSF
B28: 5T4 9 mer peptide 113 (LPRDVLAQL) (peptide)
peptide: LPRDVLAQL
B29: 5T4 9 mer peptide 147 (NNPWVCDCH) (peptide)
peptide: NNPWVCDCH
B30: 5T4 9 mer peptide 100 (VVAALLAGR) (peptide)
peptide: VVAALLAGR
B31: 5T4 9 mer peptide 198 (HMEGYHYRY) (peptide)
peptide: HMEGYHYRY
B32: 5T4 9 mer peptide 177 (QTSYVFLGI) (peptide)
peptide: QTSYVFLGI
B33: 5T4 9 mer peptide 21 (FSSSAPFLA) (peptide)
peptide: FSSSAPFLA
B34: 5T4 9-mer peptide 101 (peptide)
peptide: AALLAGRAL
notes: also called AALLAGRAL
B35: 5T4 9-mer peptide 71 (peptide)
peptide: LPSLRQLDL
B36: 5T4 9-mer peptide 117 (peptide)
peptide: LPSLRHLDL
B37: 5T4 9-mer peptide 17 (peptide)
peptide: SPTSSASSF
B38: 5T4 9-mer peptide 23 (peptide)
peptide: APFLASAVS
B39: 5T4 9-mer peptide 8 (peptide)
peptide: RLRLARLAL
notes: also called RLRLARLAL
B40: 5T4 9-mer peptide 45 (peptide)
peptide: LPAYVRNLF
B41: 5T4 9-mer peptide 58 (peptide)
peptide: PPLAELAAL
notes: also called PPLAELAAL
B42: 5T4 9-mer peptide 113 (peptide)
peptide: LPRDVLAQL
B43: 5T4 9-mer peptide 55 (peptide)
peptide: GAFARRPPL

Consider 43 molecules from US20090280138A1 (OXFORD BIOMEDICA UK, published 2009).

For orientation: EC50 means the concentration giving half of the maximal effect. Lower therefore signals higher potency in that assay.

One test has as its target T1, MHC class I molecule HLA-A*0201 (iTopia plate-bound monomer) (biotin (bound to streptavidin-coated plate)).
T1 construct: also called A2
The experiment in a line: iTopia off-rate assay, 37 C; fit R^2 0.93. On the procedure:
(§1) The 9 mers were tested for Peptide Binding, Off Rate and Affinity using iTopia Epitope Discovery System in accordance with the manufacturer's instructions. Briefly, 96 well microtitre plates coated with MHC molecules representing different MHC alleles are used to identify candidate peptides. […] Determinations are performed in duplicate using an ELISA plate reader and included allele specific positive controls.
A one-phase exponential decay curve, with a plateau given equal to 0, was generated using GraphPad Prism® software, which calculated the t1/2 and goodness-of-fit, as measured by r², for each peptide.
As for B1, the t½ half life is 4.8 h.

Turning to B2, the t½ half life amounted to 1.6 h.

B3 registered a t½ half life of 1.2 h.

B4 yielded a t½ half life of 1.2 h.

On to B5, for which the t½ half life is 0.4 h.

B6 displayed a t½ half life of 1.8 h.

Consider B7, for which the t½ half life was found to be 0.4 h.

Consider B8, for which the t½ half life was 5 h.

The target of the next test is T2, MHC class I allele A*0301 monomer (human, biotinylated, bound to streptavidin-coated plate).
T2 construct: also called A3; HLA-A3
Description: iTopia, multiparametric iScore. The essentials: (§2)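 9-mer peptides were tested on plates coated with MHC molecules, measuring binding, off-rate and affinity by ELISA in duplicate with allele-specific positive controls.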
B9: the iScore is 0.086.

B10 registered an iScore of 0.

B11 had an iScore of 0.

For the molecule B12, the iScore came to 0.017.

For the next test, the target named is T3, MHC class I allele B*0702 monomer (human, biotinylated, bound to streptavidin-coated plate).
T3 construct: also called B7; HLA-B7
The experiment in a line: iTopia, multiparametric iScore. The procedure, abridged: as §2
Turning to B9, the iScore is 0.21.

B10 showed an iScore of 0.242.

For B11, the iScore amounted to 0.067.

Consider B12, for which the iScore stood at 0.164.

The next test addresses T4, MHC class I allele A*0201 monomer (human, biotinylated, bound to streptavidin-coated plate).
T4 construct: also called A2; HLA-A2
Description: iTopia, multiparametric iScore. The essentials: as §2
B9 returned an iScore of 0.

Molecule B10 displayed an iScore of 0.

Turning to B11, the iScore is 0.425.

The molecule B12 showed an iScore of 0.095.

Another test deals with T5, MHC class I allele A*0101 monomer (human, biotinylated, bound to streptavidin-coated plate).
T5 construct: placeholder peptide and b2M removed, then reconstituted with test peptide and fresh b2M; also called A1; HLA-A1
The experiment in a line: iTopia, multiparametric iScore. The procedure, abridged:
as §2
In turn, B9 had an iScore of 0.

B10: the iScore worked out at 0.

B11 yielded an iScore of 0.

With B12, the iScore worked out at 0.

The next test has as its target T6, MHC class I molecule A*0201 (biotin (bound via biotin to streptavidin-coated plates)).
T6 construct: also called A2; HLA-A2
The experiment in a line: iTopia affinity assay (ED50), peptide titration on plate-bound MHC. On the procedure: as §1
(§3) Dose-response curves of peptide binding to MHC were prepared by peptide titration to determine the ED50 measurement for each peptide. Values for the concentrations tested (in duplicate) were obtained as a percentage of the highest (9000×) concentration of the positive control peptide. A dose-response curve was generated using GraphPad Prism® curve fitting software, which automatically calculated the ED50 (in Molarity) for each peptide.
B13 displayed an EC50 of 40 µM.

In turn, B14 came in with an EC50 of 0.8 µM.

B15 displayed an EC50 of 0.06 µM.

On to B16, for which the EC50 is 20 µM.

For B17, the midpoint of the response, the EC50, lay at 20 µM.

As to B18, the concentration for a half-maximal effect (EC50) was 10 µM.

Regarding B19, the EC50 amounted to 2 µM.

For the molecule B20, it took 5 µM to reach a half-maximal effect (EC50).

Turning to B21, the half-maximal effective concentration (EC50) came out at 20 µM.

Regarding B22, the midpoint of the response, the EC50, lay at 0.4 µM.

For the molecule B23, the half-maximal effective concentration (EC50) turned out to be 0.6 µM.

Consider B24, for which a half-maximal effect (EC50) was put at 4 µM.

In the case of B25, it took 20 µM to reach a half-maximal effect (EC50).

In another test the target is T7, MHC class I molecule B*0702 (biotin (bound via biotin to streptavidin-coated plates)).
T7 construct: Methods name B*0702 as the allele used; also called B7; HLA-B7
The description is as above. On the procedure: as §1, §3
Regarding B13, the EC50 was found to be 30 µM.

Molecule B14 came in with an EC50 of 10 µM.

Molecule B15 displayed a 50% effective concentration (EC50) of 0.02 µM.

For the molecule B16, the concentration giving a half-maximal response (EC50) amounted to 20 µM.

B19 displayed a 50% effective concentration (EC50) of 20 µM.

For the molecule B26, the concentration for a half-maximal effect (EC50) was found to be 2 µM.

Consider B20, for which the EC50 is 3 µM.

B21 registered an EC50 of 5 µM.

On to B22, for which the EC50 turned out to be 3 µM.

As for B24, the EC50 is 7 µM.

As for B25, the midpoint of the response, the EC50, lay at 20 µM.

Molecule B27 returned a 50% effective concentration (EC50) of 2 µM.

Molecule B28 had a 50% effective concentration (EC50) of 10 µM.

The target in a further test is T8, MHC class I molecule A*0301 (biotin (bound via biotin to streptavidin-coated plates)).
T8 construct: also called A3; HLA-A3
The description is as above. On the procedure: as §1, §3
Consider B15, for which the EC50 was determined as 0.4 µM.

In the case of B29, the concentration giving a half-maximal response (EC50) worked out at 3 µM.

In turn, B30 had an EC50 of 10 µM.

Regarding B22, a half-maximal response (EC50) required 3 µM.

As for B23, the EC50 came out at 30 µM.

B25 yielded an EC50 of 40 µM.

In the next test the target is T9, MHC class I molecule A*0101 (biotin (bound via biotin to streptavidin-coated plates)).
T9 construct: also called A1; HLA-A1
The description is as above. On the procedure:
as §1, §3
B17 registered an EC50 of 20 µM.

B18: the EC50 stood at 20 µM.

Regarding B31, the midpoint of the response, the EC50, lay at 3 µM.

As for B22, the concentration giving a half-maximal response (EC50) amounted to 3 µM.

In the case of B23, the midpoint of the response, the EC50, lay at 20 µM.

Consider B32, for which the EC50 stood at 20 µM.

Regarding B33, a half-maximal response (EC50) required 20 µM.

Another test has as its target T3, MHC class I allele B*0702 monomer. The experiment in a line: iTopia, multiparametric iScore. The source holds these as a separate data set. On the procedure: as §1
(§4) Finally, multiparametric analysis is performed on the results from these assays and an iScore is generated. The iScore represents a measure of the overall quality of peptide-MHC binding, enabling candidate peptides to be ranked in order of binding quality and allowing rational prioritisation of peptides for functional cellular follow-up studies.
Turning to B34, the iScore was 0.238.

B35 showed an iScore of 0.454.

The molecule B36 showed an iScore of 0.445.

Consider B9, for which the iScore was determined as 0.21.

Turning to B37, the iScore turned out to be 0.335.

Regarding B38, the iScore amounted to 0.176.

The molecule B10 showed an iScore of 0.242.

B39: the iScore worked out at 1.

In turn, B40 showed an iScore of 0.389.

Molecule B41 had an iScore of 0.145.

B42: the iScore worked out at 0.305.

Molecule B43 gave an iScore of 0.359.

B12 came in with an iScore of 0.164.

The target in the next test is T4, MHC class I allele A*0201 monomer. Description: iTopia, multiparametric iScore. This is another data set of the same source. On the procedure: as §1, §4
The molecule B11 had an iScore of 0.425.
